# Data taken from patent publication US20090104178A1.
# pKd: −log10 of the molar value.
# Assays:
# Test in all cases: SPR (BIAcore X), E12 thiol-coupled to the chip, chemokine injected
# mCCL21 (mouse) = mCCL21 (mouse) (UniProt P84444)
# mCXCL11 (mouse) = mCXCL11 (mouse) (UniProt Q9JHH5)
# mCCL27 (mouse) = mCCL27 (mouse) (UniProt Q9Z1X0)
# mCXCL13 (mouse) = mCXCL13 (mouse) (UniProt O55038)
# mCXCL14 (mouse) = mCXCL14 (mouse) (UniProt Q9WUQ5)
# mCCL25 (mouse) = mCCL25 (mouse) (UniProt O35903)
# Sequence of mCCL25 (mouse) (O35903 24-144 limits assumed): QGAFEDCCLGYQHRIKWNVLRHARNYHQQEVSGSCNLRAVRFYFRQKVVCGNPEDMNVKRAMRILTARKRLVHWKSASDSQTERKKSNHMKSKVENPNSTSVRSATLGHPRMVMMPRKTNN
# Sequence of mCXCL14 (mouse) (Q9WUQ5 23-99 limits assumed): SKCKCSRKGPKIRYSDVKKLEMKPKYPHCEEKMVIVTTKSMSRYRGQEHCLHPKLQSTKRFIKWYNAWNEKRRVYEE
# Sequence of mCCL27 (mouse) (Q9Z1X0 26-120 limits assumed): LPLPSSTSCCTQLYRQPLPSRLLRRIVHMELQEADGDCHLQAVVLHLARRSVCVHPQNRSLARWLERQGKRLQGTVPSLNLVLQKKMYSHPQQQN
# Sequence of mCXCL11 (mouse) (Q9JHH5 22-100 limits assumed): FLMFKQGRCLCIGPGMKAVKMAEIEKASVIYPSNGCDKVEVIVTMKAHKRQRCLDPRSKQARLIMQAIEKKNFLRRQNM
# Sequence of mCCL21 (mouse) (P84444 24-133): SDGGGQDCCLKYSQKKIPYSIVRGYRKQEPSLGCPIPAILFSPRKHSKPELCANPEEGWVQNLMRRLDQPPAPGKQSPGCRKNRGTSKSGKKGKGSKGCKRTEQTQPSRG
# Sequence of mCXCL13 (mouse) (O55038 22-109 limits assumed): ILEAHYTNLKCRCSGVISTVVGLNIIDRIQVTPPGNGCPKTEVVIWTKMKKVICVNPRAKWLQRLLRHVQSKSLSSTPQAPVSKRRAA
substance,measurement,setting,value
Purified EV E12 protein,pKd,mCCL21 (mouse),9.30
same,pKd,mCXCL11 (mouse),9.00
same,pKd,mCCL27 (mouse),8.70
same,pKd,mCXCL13 (mouse),8.82
same,pKd,mCXCL14 (mouse),8.82
same,pKd,mCCL25 (mouse),9.15
